B1: peptide … (SEQ ID No. 56) (peptide)
peptide: LFHPEDTGQVF
B2: peptide … (SEQ ID No. 25) (peptide)
peptide: IYEPYLAMF
B3: peptide … (SEQ ID No. 32) (peptide)
peptide: PYQLNASLFTF
B4: peptide … (SEQ ID No. 47) (peptide)
peptide: SYTPVLNQF
B5: peptide … (SEQ ID No. 54) (peptide)
peptide: AYSEKVTEF
B6: peptide … (SEQ ID No. 43) (peptide)
peptide: AYIKNGQLF
B7: peptide … (SEQ ID No. 59) (peptide)
peptide: IYPDVTYAF
B8: peptide … (SEQ ID No. 45) (peptide)
peptide: RYFKTPRKF
B9: peptide … (SEQ ID No. 33) (peptide)
peptide: QYGKDFLTL
B10: peptide … (SEQ ID No. 58) (peptide)
peptide: GYIDKVRQL
B11: peptide … (SEQ ID No. 30) (peptide)
peptide: SYSPAHARL
B12: peptide … (SEQ ID No. 28) (peptide)
peptide: YYAKEIHKF
B13: peptide … (SEQ ID No. 34) (peptide)
peptide: AFSPDSHYLLF
B14: peptide … (SEQ ID No. 35) (peptide)
peptide: IYTRVTYYL
B15: peptide … (SEQ ID No. 48) (peptide)
peptide: AWAPKPYHKF
B16: peptide … (SEQ ID No. 41) (peptide)
peptide: RYLQKIEEF
B17: peptide … (SEQ ID No. 31) (peptide)
peptide: AYTSPPSFF
B18: peptide … (SEQ ID No. 55) (peptide)
peptide: LYFEKGEYF
B19: peptide … (SEQ ID No. 42) (peptide)
peptide: TYIGQGYII
B20: peptide … (SEQ ID No. 27) (peptide)
peptide: GYLQGLVSF
B21: peptide … (SEQ ID No. 36) (peptide)
peptide: RYMWINQEL
B22: peptide … (SEQ ID No. 29) (peptide)
peptide: RYGSPINTF
B23: peptide … (SEQ ID No. 44) (peptide)
peptide: VYNTVSEGTHF
B24: peptide … (SEQ ID No. 26) (peptide)
peptide: RYADDTFTPAF
B25: peptide … (SEQ ID No. 24) (peptide)
peptide: SYNDALLTF

Target: HLA-A*24 MHC class I molecule (peptide-receptive after UV-ligand exchange) (human)
Assay: UV-ligand exchange, anti-b2m ELISA; grade of peptide exchange yield (>=10% = +; >=20% = ++; >=50 = +++; >=75% = ++++)

Row | peptide exchange yield [%] | Binder
1 | 20 to 50 | B1
2 | 50 to 75 | B2
3 | > 75 | B3
4 | > 75 | B4
5 | 50 to 75 | B5
6 | 50 to 75 | B6
7 | 50 to 75 | B7
8 | 20 to 50 | B8
9 | 50 to 75 | B9
10 | 20 to 50 | B10
11 | 50 to 75 | B11
12 | > 75 | B12
13 | 50 to 75 | B13
14 | 20 to 50 | B14
15 | 50 to 75 | B15
16 | 50 to 75 | B16
17 | 50 to 75 | B17
18 | > 75 | B18
19 | 50 to 75 | B19
20 | > 75 | B20
21 | 50 to 75 | B21
22 | 50 to 75 | B22
23 | 50 to 75 | B23
24 | 50 to 75 | B24
25 | 50 to 75 | B25

Source: patent US20210275653A1
